# From patent US20190307847A1 (NGM BIOPHARMACEUTICALS, published 2019)
# B1: FGF19 variant M70 (ligand)
# chain: MRDSSPLVHYGWGDPIRLRHLYTSGPHGLSSCFLRIRADGVVDCARGQSAHSLLEIKAVALRTVAIKGVHSVRYLCMGADGKMQGLLQYSEEDCAFEEEIRPDGYNVYRSEKHRLPVSLSSAKQRQLYKNRGFLPLSHFLPMLPMVPEEPEDLRGHLESDMFSSPLETDSMDPFGLVTGLEAVRSPSFEK
# Molecular target: mouse FGFR4/β-klotho complex co-expressed in rat L6 myoblast cells (mouse, UniProt Q03142 17-799; Q99N32 1-1043)
# Experiment: cell-based or functional assay
# mouse FGFR4/β-klotho complex co-expressed in rat L6 myoblast cells, sequence (Q03142 17-799, chain 1 of 2): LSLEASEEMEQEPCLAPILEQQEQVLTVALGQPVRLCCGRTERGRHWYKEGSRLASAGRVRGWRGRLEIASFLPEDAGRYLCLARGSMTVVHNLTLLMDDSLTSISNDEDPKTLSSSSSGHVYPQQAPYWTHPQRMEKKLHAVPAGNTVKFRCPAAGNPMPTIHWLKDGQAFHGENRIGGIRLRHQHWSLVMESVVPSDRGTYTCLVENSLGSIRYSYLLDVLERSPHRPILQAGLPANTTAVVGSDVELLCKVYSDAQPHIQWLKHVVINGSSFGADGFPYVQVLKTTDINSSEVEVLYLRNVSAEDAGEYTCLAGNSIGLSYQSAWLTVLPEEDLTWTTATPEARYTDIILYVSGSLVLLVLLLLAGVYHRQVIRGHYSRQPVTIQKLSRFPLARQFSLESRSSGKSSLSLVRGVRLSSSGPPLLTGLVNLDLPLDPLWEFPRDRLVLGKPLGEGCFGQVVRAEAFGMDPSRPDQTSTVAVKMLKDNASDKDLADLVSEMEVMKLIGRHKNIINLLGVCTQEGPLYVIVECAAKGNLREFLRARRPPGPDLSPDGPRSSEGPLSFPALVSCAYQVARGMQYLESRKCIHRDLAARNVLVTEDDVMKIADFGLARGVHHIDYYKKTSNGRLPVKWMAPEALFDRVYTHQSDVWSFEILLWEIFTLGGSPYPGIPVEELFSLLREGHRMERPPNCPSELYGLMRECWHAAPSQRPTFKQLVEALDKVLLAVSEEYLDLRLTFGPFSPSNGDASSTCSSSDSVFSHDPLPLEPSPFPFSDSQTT
# mouse FGFR4/β-klotho complex co-expressed in rat L6 myoblast cells, sequence (Q99N32 whole entry, chain 2 of 2): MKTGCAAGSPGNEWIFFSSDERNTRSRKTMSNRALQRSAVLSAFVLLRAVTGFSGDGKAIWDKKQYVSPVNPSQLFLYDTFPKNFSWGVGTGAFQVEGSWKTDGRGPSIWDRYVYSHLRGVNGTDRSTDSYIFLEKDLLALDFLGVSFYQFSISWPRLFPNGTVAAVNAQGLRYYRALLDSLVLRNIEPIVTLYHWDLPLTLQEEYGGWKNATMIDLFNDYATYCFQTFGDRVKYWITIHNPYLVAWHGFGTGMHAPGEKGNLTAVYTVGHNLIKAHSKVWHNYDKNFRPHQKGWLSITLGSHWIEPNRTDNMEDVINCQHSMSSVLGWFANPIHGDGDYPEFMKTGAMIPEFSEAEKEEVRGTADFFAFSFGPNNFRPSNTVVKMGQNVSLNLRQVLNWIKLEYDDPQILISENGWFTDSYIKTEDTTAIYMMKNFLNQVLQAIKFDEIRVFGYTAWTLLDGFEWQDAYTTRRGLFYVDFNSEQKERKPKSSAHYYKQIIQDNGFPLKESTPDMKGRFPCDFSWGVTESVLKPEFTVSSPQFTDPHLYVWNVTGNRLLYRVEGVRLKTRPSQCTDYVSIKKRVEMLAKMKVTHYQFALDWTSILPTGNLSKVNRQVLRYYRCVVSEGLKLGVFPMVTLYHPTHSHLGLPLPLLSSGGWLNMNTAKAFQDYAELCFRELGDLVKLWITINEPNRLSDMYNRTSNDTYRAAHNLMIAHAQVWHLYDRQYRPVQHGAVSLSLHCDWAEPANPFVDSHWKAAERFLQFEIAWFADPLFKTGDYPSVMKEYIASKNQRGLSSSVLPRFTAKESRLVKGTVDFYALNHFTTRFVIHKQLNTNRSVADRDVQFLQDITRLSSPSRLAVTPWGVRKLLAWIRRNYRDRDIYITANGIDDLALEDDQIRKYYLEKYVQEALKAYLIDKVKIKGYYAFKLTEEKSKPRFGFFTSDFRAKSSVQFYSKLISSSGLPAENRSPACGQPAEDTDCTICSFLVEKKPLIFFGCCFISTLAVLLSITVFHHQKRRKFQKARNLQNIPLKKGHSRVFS
binder,measurement,value
B1,"EC50 (pM), ELK luciferase assay in L6 cells",38.3 pM
same,"Emax (fold potentiation), ELK luciferase assay in L6 cells",1.85 fold potentiation
